For one molecule, activity results are on record in patent US20250277199, “NOVEL CRISPR-CAS NUCLEASES FROM METAGENOMES” (Brain Biotech AG, published 2025).

The target of the series is T1, BMC07 (uncultured bacterium (metagenome)).
T1 chain: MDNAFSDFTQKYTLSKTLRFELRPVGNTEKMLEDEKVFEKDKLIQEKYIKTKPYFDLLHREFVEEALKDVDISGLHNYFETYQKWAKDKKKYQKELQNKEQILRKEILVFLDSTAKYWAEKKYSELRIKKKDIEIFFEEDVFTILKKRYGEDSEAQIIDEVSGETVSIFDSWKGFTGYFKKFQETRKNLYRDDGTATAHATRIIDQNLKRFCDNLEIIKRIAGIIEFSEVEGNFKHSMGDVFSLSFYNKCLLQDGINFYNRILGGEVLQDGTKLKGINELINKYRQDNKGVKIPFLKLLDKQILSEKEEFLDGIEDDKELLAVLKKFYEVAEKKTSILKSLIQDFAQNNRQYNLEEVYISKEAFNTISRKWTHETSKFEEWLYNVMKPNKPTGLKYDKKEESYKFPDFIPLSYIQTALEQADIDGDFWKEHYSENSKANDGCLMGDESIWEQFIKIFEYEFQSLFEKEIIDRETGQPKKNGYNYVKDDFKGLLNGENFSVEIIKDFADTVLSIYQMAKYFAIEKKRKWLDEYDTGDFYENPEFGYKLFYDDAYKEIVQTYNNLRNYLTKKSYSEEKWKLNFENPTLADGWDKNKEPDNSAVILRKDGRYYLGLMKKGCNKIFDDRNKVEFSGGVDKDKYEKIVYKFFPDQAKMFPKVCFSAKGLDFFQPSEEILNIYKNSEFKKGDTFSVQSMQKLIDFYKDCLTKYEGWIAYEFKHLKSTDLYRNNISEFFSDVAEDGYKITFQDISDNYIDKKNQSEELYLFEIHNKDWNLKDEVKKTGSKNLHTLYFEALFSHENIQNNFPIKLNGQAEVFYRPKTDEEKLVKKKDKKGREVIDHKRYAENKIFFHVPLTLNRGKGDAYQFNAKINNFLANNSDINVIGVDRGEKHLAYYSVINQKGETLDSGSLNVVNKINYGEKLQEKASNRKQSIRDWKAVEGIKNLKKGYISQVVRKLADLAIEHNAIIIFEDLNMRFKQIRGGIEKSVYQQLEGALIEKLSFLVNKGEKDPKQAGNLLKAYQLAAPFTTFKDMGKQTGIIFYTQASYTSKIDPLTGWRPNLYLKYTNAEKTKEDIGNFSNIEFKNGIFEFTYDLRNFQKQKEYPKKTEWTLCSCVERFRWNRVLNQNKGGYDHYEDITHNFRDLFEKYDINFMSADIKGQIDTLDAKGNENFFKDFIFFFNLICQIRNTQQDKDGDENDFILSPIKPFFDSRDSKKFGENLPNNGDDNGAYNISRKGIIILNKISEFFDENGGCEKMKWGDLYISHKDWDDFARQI
As to the kind of experiment: cell_activity; PAM not stated; E. coli depletion, 30 C. In short, it runs like this: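 E. coli carrying arabinose-induced (0.2%) BMC nuclease, grown at 30° C., made electrocompetent and electroporated with 50-100 ng plasmid carrying gRNA against malQ. Transformants plated on selective M9-glucose agar with kanamycin/ampicillin (± nourseothricin), and growth scored after 48 h at 30° C.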

B1: malQ gRNA (BMC stem-loop + 24 nt spacer) ; malQ protospacer (ssRNA ; dsDNA)
RNA: GAUUUCUACUAUUGUAGAUGUGGCGGUACGUUGAUGCAUCGCG
DNA 1: GTGGCGGTACGTTGATGCATCGCG
DNA 2: CGCGATGCATCAACGTACCGCCAC
For the molecule B1, the activity is > 99.9 % colony reduction.
